{
  "source": "patent US20030100489",
  "test_system": "p16",
  "data": [
    {"substance": "CDK2", "values": [
      {"measurement": "RB phosphorylation by CDK2-cyclin D2 complexes", "value": "No inhibition was observed when CDK2-cyclin D2 complexes were used in a similar assay"}
    ]}
  ]
}
